Target: T1, monomeric α-toxin (AT) of Staphylococcus aureus, as crystallised (Staphylococcus aureus subsp. aureus …)
T1 chain: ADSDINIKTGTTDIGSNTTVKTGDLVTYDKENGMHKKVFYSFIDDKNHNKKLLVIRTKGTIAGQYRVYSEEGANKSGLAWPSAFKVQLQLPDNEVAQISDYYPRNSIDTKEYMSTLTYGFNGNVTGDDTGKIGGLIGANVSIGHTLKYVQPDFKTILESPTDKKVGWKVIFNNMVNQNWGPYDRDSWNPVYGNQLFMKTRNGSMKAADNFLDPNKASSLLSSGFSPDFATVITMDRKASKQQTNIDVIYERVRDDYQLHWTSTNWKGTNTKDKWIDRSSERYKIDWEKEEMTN
Assay: crystal structure
Conditions: both partners purified

B1: MEDI4893 Fab (Fab, V domains shown)
VH: EVQLVESGGGLVQPGGSLRLSCAASGFTFSSHDMHWVRQATGKGLEWVSGIGTAGDTYYPDSVKGRFTISRENAKNSLYLQMNSLRAGDTAVYYCARDRYSPTGHYYGMDVWGQGTTVTVSS
VL: DIQMTQSPSTLSASVGDRVTITCRASQSISSWLAWYQQKPGKAPKLLIYKASSLESGVPSRFSGSGSGTEFTLTISSLQPDDFATYYCKQYADYWTFGQGTKVEIK
- binding result: binds

From publication PMC4207998 (The Journal of Biological Chemistry, 2014)
